Source: patent publication US8609357B2, “Methods for detecting LP-PLA2 activity and inhibition of LP-PLA2 activity” (Glaxo Group Limited, priority 2004, dated 2013)
Where “and” joins values, the source holds several entries; their conditions need not be identical. Equal values may be shown once.

Legend:
[1] = Plasma level of inhibitor in clinical studies (pharmacokinetics); conditions: human subjects, administered in vivo
[2] = molecular target: T1, Lp-PLA2 (Homo sapiens, UniProt Q13093); assay: Auto PAF AH assay (Azwell kit, Olympus Au640); assay type: biochemical
T1 construct: Unless otherwise indicated all plasma samples were collected from human and are human plasma; from tissue; host or cells: human blood plasma (EDTA)
T1 sequence (Q13093 22-441): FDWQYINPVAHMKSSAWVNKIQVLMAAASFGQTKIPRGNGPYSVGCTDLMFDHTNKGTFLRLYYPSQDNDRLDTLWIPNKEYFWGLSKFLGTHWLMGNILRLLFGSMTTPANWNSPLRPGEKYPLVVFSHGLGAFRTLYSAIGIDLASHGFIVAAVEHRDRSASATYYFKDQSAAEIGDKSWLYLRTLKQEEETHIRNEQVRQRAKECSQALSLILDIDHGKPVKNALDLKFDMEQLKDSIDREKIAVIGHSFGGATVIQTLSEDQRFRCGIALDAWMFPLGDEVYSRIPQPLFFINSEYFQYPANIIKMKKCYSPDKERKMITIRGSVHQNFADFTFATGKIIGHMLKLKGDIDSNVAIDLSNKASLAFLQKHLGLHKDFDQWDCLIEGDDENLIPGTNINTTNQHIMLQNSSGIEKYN
Experimental: The Auto PAF AH assay kit, manufactured by Azwell (Osaka, Japan), is commercially available in the United States through Karlan Research Products Corporation (Santa Rosa, Calif.).
Azwell Auto PAF-AH Assay Kit:
Prepare the following reagents: • R1: Use this buffer solution as supplied in Azwell Auto PAF AH assay kit. Store at 4° C. Protect from light. • R2: Prepare the R2 working solution by mixing R2A and R2B (supplied in Azwell Auto PAF AH assay kit) in the proportion of 19:1. Store at 4° C. Protect from light. • 3. […] Briefly centrifuge to spin down fibrin clots/particles in the plasma. • 4. Place Sarstedt tubes containing plasma samples onto sample tubes that fit the instrument. Run plasma samples through the Au640 analyzer. After choosing the PAF AH assay program, the analytical procedure described below is performed automatically: • Test sample (2 μL)+R1 (240 μL), 37° C., 5 minutes [0-5 minutes] • Add R2 (80 μL), 37° C., 5 minutes [5-10 minutes] • Measure the absorbance at 410 nm and 480 nm [6-8 minutes] • Calculate PAF AH activity (IU/L) • 5.

[3] = molecular target: T2, recombinant human Lp-PLA2 protein (hrLp-PLA2) (Homo sapiens, UniProt Q13093); assay: Modified colorimetric assay of recombinant human Lp-PLA2 protein (dynamic range); assay type: biochemical; conditions: for Activity (assay dynamic range): hrLp-PLA2 14.6-3750 ng/ml, […] substrate/45 μL
T2 construct: made in house
T2 sequence (Q13093 22-441): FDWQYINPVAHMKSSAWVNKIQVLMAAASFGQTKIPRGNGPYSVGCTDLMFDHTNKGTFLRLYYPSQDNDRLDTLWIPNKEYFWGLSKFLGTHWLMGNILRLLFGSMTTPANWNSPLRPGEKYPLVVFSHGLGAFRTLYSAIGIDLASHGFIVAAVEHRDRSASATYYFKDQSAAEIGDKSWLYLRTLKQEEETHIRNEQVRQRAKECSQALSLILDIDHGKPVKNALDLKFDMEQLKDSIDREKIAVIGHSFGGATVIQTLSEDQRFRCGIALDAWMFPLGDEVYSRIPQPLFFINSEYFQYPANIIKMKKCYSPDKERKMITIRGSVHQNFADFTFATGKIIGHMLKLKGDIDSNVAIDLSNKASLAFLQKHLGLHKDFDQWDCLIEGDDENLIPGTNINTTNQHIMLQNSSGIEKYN
Experimental: (§1) Assay dynamic range was defined by using both recombinant human Lp-PLA2 protein (hrLp-PLA2) generated in-house and Lp-PLA2 protein purified from human plasma in-house.
hrLp-PLA2 was serially diluted and 25 μL of each diluted hrLp-PLA2 were assayed by a modified drug-sensitive colorimetric assay (data shown in Table 10). […]. (see Table 10).
[…]. Therefore, such conditions with lower substrate concentration and higher sample volume could be used when higher measurable in vivo inhibition is desired while the range of Lp-PLA2 activity for test samples is limited or could be compromised. […]. Earlier and shorter reaction time could be considered to use in activity calculation to improve assay dynamic range when such conditions are used.

[4] = molecular target: T3, hLp-PLA2 purified from plasma (Homo sapiens, UniProt Q13093); assay: Modified colorimetric assay of Lp-PLA2 purified from human plasma (dynamic range); assay type: biochemical
T3 construct: Lp-PLA2 protein purified from human plasma in-house; from tissue; host or cells: human plasma, purified in-house
T3 sequence (Q13093 22-441): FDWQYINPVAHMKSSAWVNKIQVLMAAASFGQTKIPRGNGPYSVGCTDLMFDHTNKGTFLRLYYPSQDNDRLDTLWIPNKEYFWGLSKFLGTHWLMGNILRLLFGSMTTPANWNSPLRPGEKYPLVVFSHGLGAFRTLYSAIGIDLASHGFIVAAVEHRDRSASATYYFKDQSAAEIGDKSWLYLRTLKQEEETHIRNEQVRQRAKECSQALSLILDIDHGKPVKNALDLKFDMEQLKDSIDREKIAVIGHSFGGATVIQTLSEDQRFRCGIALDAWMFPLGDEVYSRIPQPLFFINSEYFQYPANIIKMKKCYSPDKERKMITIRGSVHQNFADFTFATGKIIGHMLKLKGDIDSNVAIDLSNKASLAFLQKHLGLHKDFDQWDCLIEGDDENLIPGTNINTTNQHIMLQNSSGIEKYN
Experimental: as §1
hLp-PLA2 purified from plasma was also serially diluted and 25 pt of each dilution were assayed by a modified drug-sensitive colorimetric assay (data shown in Table 11). […] The relatively lower upper limit of the dynamic range determined by purified hLp-PLA2 may be resulted from interference factors possibly present in the purified product and/or introduced during purification process. Limited availability of such purified protein prevents further investigation.

Work on `CCN(CC)CCN(Cc1ccc(-c2ccc(C(F)(F)F)cc2)cc1)C(=O)Cn1c(SCc2ccc(F)cc2)nc(=O)c2c1CCC2` [Formula II, 1-(N-(2-(Diethylamino)ethyl)-N-(4-(4-trifluoromethylphenyl)benzyl)-aminocarbonylmethyl)-2-(4-fluorobenzyl)thio-5,6-trimethylenepyrimidin-4-one bitartrate] yielded a peak plasma level [1] of 90 ng/mL.

With `COCCN1CCC(N(Cc2ccc(-c3ccc(C(F)(F)F)cc3)cc2)C(=O)Cn2c(SCc3cccc(F)c3F)cc(=O)c3ccccc32)CC1` [Formula I] the “drug inhibition by Auto PAF AH assay” value ([2]; four subjects, 80-240 mg in vivo) was “failed to indicate drug inhibition” and the “Lp-PLA2 inhibition measured by Auto PAF AH assay” value ([2]; six drug-treated human subjects, 120-240 mg in vivo) was “not apparent”.

With `CCCCCCCCCCCCCC(=O)OCC(COP(=O)([O-])OCC[N+](C)(C)C)OC(=O)CCC(=O)Oc1ccc([N+](=O)[O-])cc1` (stereo not shown) [substrate, reference compound] the Km ([2]; plasma as the enzyme source, Auto PAF AH protocol) was ~200 µM and 200 µM.

B1: hrLp-PLA2: recombinant human Lp-PLA2 protein generated in-house (protein, UniProt Q13093 22-441, looked up)
Platelet-activating factor …: FDWQYINPVAHMKSSAWVNKIQVLMAAASFGQTKIPRGNGPYSVGCTDLMFDHTNKGTFLRLYYPSQDNDRLDTLWIPNKEYFWGLSKFLGTHWLMGNILRLLFGSMTTPANWNSPLRPGEKYPLVVFSHGLGAFRTLYSAIGIDLASHGFIVAAVEHRDRSASATYYFKDQSAAEIGDKSWLYLRTLKQEEETHIRNEQVRQRAKECSQALSLILDIDHGKPVKNALDLKFDMEQLKDSIDREKIAVIGHSFGGATVIQTLSEDQRFRCGIALDAWMFPLGDEVYSRIPQPLFFINSEYFQYPANIIKMKKCYSPDKERKMITIRGSVHQNFADFTFATGKIIGHMLKLKGDIDSNVAIDLSNKASLAFLQKHLGLHKDFDQWDCLIEGDDENLIPGTNINTTNQHIMLQNSSGIEKYN
Molecule B1 has an Activity ([3]; hrLp-PLA2 4.88 ng/mL, […] Substrate/45 μL) of 2.71 nmol/min/mL, an Activity ([3]; hrLp-PLA2 9.77 ng/mL, […] Substrate/45 μL) of 5.13 nmol/min/mL and an Activity ([3]; hrLp-PLA2 19.53 ng/mL, […] Substrate/45 μL) of 9.27 nmol/min/mL. The Activity ([3]; hrLp-PLA2 39.06 ng/mL, […] Substrate/45 μL) was 17.81 nmol/min/mL, the Activity ([3]; hrLp-PLA2 78.13 ng/mL, […] Substrate/45 μL) was 30.16 nmol/min/mL and the Activity ([3]; hrLp-PLA2 156.25 ng/mL, […] Substrate/45 μL) was 51.62 nmol/min/mL. It also gave an Activity ([3]; hrLp-PLA2 312.50 ng/mL, […] Substrate/45 μL) of 84.14 nmol/min/mL, an Activity ([3]; hrLp-PLA2 625.00 ng/mL, […] Substrate/45 μL) of 109.44 nmol/min/mL and an Activity ([3]; hrLp-PLA2 1250.00 ng/mL, […] Substrate/45 μL) of 93.90 nmol/min/mL. It also gave an Activity ([3]; hrLp-PLA2 1650 ng/ml, 25 uL assayed) of 30.0 nmol/min/mL, an Activity ([3]; hrLp-PLA2 3300 ng/ml, 25 uL assayed) of 69.7 nmol/min/mL and an Activity ([3]; hrLp-PLA2 6600 ng/ml, 25 uL assayed) of 169.0 nmol/min/mL. The Activity ([3]; hrLp-PLA2 14666 ng/ml, 25 uL assayed) was 413.7 nmol/min/mL, the “Activity (assay dynamic range)” value ([3]; reaction time used for calculation 30 sec-0) was 3.4 to 210 nmol/min/mL and the “Activity (assay dynamic range)” value ([3]; reaction time used for calculation 1 min-0) was 3.2 to 196.5 nmol/min/mL.

B2: Purified hLp-PLA2 (protein, UniProt Q13093 22-441, looked up)
Platelet-activating factor …: FDWQYINPVAHMKSSAWVNKIQVLMAAASFGQTKIPRGNGPYSVGCTDLMFDHTNKGTFLRLYYPSQDNDRLDTLWIPNKEYFWGLSKFLGTHWLMGNILRLLFGSMTTPANWNSPLRPGEKYPLVVFSHGLGAFRTLYSAIGIDLASHGFIVAAVEHRDRSASATYYFKDQSAAEIGDKSWLYLRTLKQEEETHIRNEQVRQRAKECSQALSLILDIDHGKPVKNALDLKFDMEQLKDSIDREKIAVIGHSFGGATVIQTLSEDQRFRCGIALDAWMFPLGDEVYSRIPQPLFFINSEYFQYPANIIKMKKCYSPDKERKMITIRGSVHQNFADFTFATGKIIGHMLKLKGDIDSNVAIDLSNKASLAFLQKHLGLHKDFDQWDCLIEGDDENLIPGTNINTTNQHIMLQNSSGIEKYN
B2 gave an Activity ([4]; Purified hLp-PLA2 6.25 ng/ml) of 2.47 nmol/min/mL, an Activity ([4]; Purified hLp-PLA2 12.50 ng/ml) of 5.06 nmol/min/mL and an Activity ([4]; Purified hLp-PLA2 50.00 ng/ml) of 25.68 nmol/min/mL. It also gave an Activity ([4]; Purified hLp-PLA2 100.00 ng/ml) of 54.34 nmol/min/mL, an Activity ([4]; Purified hLp-PLA2 200.00 ng/ml) of 119.34 nmol/min/mL and an Activity ([4]; Purified hLp-PLA2 400.00 ng/ml) of 212.95 nmol/min/mL. The Activity ([4]; Purified hLp-PLA2 600.00 ng/ml) was 273.60 nmol/min/mL, the Activity ([4]; Purified hLp-PLA2 800.00 ng/ml) was 324.85 nmol/min/mL and the Activity ([4]; Purified hLp-PLA2 1000.00 ng/ml) was 338.51 nmol/min/mL.
